Assay results published in US20240108746A1 (Molecular Partners, published 2024).
Where a chain is given by its changes, count along the chain named. “And” between values parts separate entries of the source, which are not always exact repeats. Identical values can stand only once.

T1: Biotinylated CD3-specific binding domain SEQ ID NO: 14 (biotinylated (site not stated))
T1 construct: Ligand on the neutravidin (NLC) SPR chip
T1 chain: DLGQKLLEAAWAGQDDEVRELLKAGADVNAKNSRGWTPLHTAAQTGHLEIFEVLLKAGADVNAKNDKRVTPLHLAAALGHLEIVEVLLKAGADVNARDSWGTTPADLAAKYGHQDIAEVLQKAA

T2: Biotinylated CD3-specific binding domain SEQ ID NO: 13 (biotinylated (site not stated))
T2 construct: Ligand on the neutravidin (NLC) SPR chip; The same domain is the CD3-specific domain of TCE #1
T2 chain: T1 chain with N65D, R68G, R97Q, Q114E

T3: TCE #2
T3 construct: also called α-HSA×α-CD123×α-CD33×α-CD3 T-cell engager; TCE (with a half-life extending moiety)
T3 chain: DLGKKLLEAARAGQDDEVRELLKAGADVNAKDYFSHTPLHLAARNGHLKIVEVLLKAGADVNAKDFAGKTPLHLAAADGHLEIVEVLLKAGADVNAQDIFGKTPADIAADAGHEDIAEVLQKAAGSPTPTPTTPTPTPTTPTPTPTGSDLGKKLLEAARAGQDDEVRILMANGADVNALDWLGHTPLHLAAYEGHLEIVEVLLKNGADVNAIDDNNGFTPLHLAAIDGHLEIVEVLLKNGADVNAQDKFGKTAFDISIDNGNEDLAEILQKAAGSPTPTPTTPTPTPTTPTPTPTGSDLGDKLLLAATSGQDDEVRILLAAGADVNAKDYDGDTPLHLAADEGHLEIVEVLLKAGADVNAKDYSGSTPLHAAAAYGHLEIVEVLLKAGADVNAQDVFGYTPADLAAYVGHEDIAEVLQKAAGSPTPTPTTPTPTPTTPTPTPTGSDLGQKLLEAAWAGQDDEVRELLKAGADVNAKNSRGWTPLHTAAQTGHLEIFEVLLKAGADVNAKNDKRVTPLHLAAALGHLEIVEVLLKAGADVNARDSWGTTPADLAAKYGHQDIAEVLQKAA

T4: TCE #1
T4 chain: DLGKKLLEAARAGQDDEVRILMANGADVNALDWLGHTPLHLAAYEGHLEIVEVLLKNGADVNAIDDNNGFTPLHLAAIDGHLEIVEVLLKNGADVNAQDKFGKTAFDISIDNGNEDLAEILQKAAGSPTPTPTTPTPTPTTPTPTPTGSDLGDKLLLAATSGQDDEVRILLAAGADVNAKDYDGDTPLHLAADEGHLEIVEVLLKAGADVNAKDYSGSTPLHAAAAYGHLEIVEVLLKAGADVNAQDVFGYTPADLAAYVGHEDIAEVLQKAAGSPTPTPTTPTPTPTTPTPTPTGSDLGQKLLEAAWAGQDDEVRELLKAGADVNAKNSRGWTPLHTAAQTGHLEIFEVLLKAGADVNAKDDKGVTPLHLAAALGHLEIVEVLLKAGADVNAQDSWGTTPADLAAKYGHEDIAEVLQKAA

T5: CD3-specific binding domain (SEQ ID NO:11)
T5 construct: Immobilized on beads in the sink chamber of the 'complex' Incucyte assay; also the first selection target; also called immobilized scavenger protein; bead-immobilized target protein
T5 chain: T1 chain with E20I, K23A, Q114G

B1: Binder #10 (designed binder)
chain: MRGSHHHHHHGSDLGKKLLQAARAGQLDEVRELLKAGADVNAKDHYGWTPLHLAASEGHLEIVEVLLKAGADVNAKDWIGWTPLHLAASFGHLEIVEVLLKAGADVNAKDVSGKTPLHIAARQGHLEIVEVLLKAGADVNAQDKSGKTPADLAARAGHQDIAEVLQKAA
B2: Binder #1 (designed binder)
chain: MRGSHHHHHHGSDLGKKLLQAARAGQLDEVRELLKAGADVNAKDFKGLTPLHLAAAHGHLEIVEVLLKAGADVNAKDVYGWTPLHIAAASGHLEIVEVLLKAGADVNAKDWLGITPLHLAASHGHLEIVEVLLKAGADVNAQDKSGKTPADLAARAGHQDIAEVLQKAA
notes: expressed in E. coli and purified by its His-tag
B3: Binder #5 (designed binder)
chain: B1 chain with L53I, S56Q, E57I, W81Y, F90H, I119V, R122A, Q123H
B4: Binder #4 (designed binder)
chain: B2 chain with A56E, I86W, S90K
B5: Binder #9 (designed binder)
chain: MRGSHHHHHHGSDLGKKLLQAARAGQLDEVRELLKAGADVNAKDHYGWTPLHLAASEGHLEIVEVLLKAGADVNAKDWIGWTPLHLAASFGHLEIVEVLLKAGADVNAKDVSGKTPLHIAARQGHLEIVEVLLKAGADVNAQDKSGKTPADLAARAGHQDIAEVLQLQKAA
B6: Binder #6 (designed binder)
chain: B1 chain with H45Q, S56Y, E57S, I79V, F90H, V111E, S112A, K114R, R122K
B7: Binder #7 (designed binder)
chain: B1 chain with S56A, W81Y, L86I, F90H, V111S, R122Q, Q123H
B8: Binder #8 (designed binder)
chain: B1 chain with L53I, S56Q, E57R, I79L, L86V, F90H, V111L, K114R
B9: Binder #2 (designed binder)
chain: B2 chain with I86W
B10: Binder #3 (designed binder)
chain: B2 chain with I86W, S90K

Target: T1, Biotinylated CD3-specific binding …
Experiment: SPR (comparable assays)

| binding result | Binder |
| --- | --- |
| binds | B1 |

Target: T2, Biotinylated CD3-specific binding …
Experiment: SPR (comparable assays)

| binding result | Binder |
| --- | --- |
| binds | B1 |

Target: T3, TCE #2
Experiment: not stated (affinity to the CD3 effector moiety of TCE #2)

| Kd [nM] | Binder |
| --- | --- |
| ~0.04 | B2 |

Target: T4, TCE #1
Experiment: cell-based or functional assay

| IC50, inhibition of TCE #1 (10 pM) mediated T-cell activation (CD25+ T-cells, % of CD8+, 48 h) [pM] | Binder |
| --- | --- |
| 18.4 | B3 |
| 33.8 | B4 |
| 83.8 | B5 |

Target: T4, TCE #1
Experiment: not stated in the sentence (affinity quoted for the Incucyte experiment with TCE #1)

| Kd [pM] | Binder |
| --- | --- |
| ≤ 6 | B3 |

Target: T5, CD3-specific binding domain (SEQ ID …)
Experiment: bead-immobilized scavenger protein in the sink chamber of the complex Incucyte assay
Description: In the experiment described here, a TCE (TCE #1) was used as drug molecule.
As in Example 4, a tumor cell line expressing the TAA was used as target cell line which has been transduced with Incucyte Nuclight Red Lentivirus for detection by the Incucyte® camera. PanT-cells were added, together with different prodrug complexes. […] Additionally, unbound TCE #1 (10 pM) as well as background (i.e. no prodrug complex or TCE, but with beads) served as controls. Tumor cell growth was measured for a period of 5 days by determining the area of red objects detected by the Incucyte® camera.

| binding result | Binder |
| --- | --- |
| binds | B5 |

Target: T1, Biotinylated CD3-specific binding …
Experiment: SPR (ProteOn XPR36), 33 C, multi-trace; biotinylated ligand on chip, binder as analyte
Description: (§1) Further SPR data were generated for Binders #1 to #9 (as listed in Example 1 above), binding to biotinylated CD3-specific binding domains having SEQ ID NOs: 13 and 14, respectively, on the chip. […] The blocking half-life (T_{1/2}) was then calculated.

| Kd [nM] | koff [s⁻¹] | kon [M⁻¹ s⁻¹] | Binder |
| --- | --- | --- | --- |
| < 0.02 | < 5e-05 | – | B6 |
| < 0.02 | < 5e-05 | – | B3 |
| < 0.02 | < 5e-05 | – | B7 |
| < 0.02 | < 5e-05 | – | B8 |
| 0.032 | 2e-05 | 630000 | B9 |
| 0.029 | 1.9e-05 | 650000 | B10 |
| 0.019 | 1.2e-05 | 630000 | B4 |
| 0.034 | 2.7e-05 | 790000 | B2 |
| < 0.02 | < 5e-05 | – | B5 |

Target: T2, Biotinylated CD3-specific binding …
Experiment: as above
Description: as §1

| Kd [nM] | koff [s⁻¹] | kon [M⁻¹ s⁻¹] | Binder |
| --- | --- | --- | --- |
| < 0.02 | < 5e-05 | – | B6 |
| < 0.02 | < 5e-05 | – | B3 |
| < 0.02 | < 5e-05 | – | B7 |
| < 0.02 | < 5e-05 | – | B8 |
| 0.028 | 4e-05 | 1.43e+06 | B9 |
| 0.016 | 2.8e-05 | 1.7e+06 | B10 |
| 0.011 | 1.9e-05 | 1.74e+06 | B4 |
| 0.04 | 6.2e-05 | 1.54e+06 | B2 |
| < 0.02 | < 5e-05 | – | B5 |

Target: T4, TCE #1
Experiment: cell-based or functional assay
Remark: another data set of the same source

| Binder | IC50, inhibition of TCE #1 (10 pM) mediated tumor cell killing (LDH release, OD492nm-620nm, 48 h) [pM] |
| --- | --- |
| B3 | 16 |
| B4 | 26.3 |
| B5 | 51.8 |

Target: T3, TCE #2
Experiment: not stated (affinity to the CD3 effector moiety of TCE #2); Binder #4, double-digit pM

| Kd [nM] | Binder |
| --- | --- |
| ~0.02 | B4 |

Target: T3, TCE #2
Experiment: not stated (affinity to the CD3 binding domain of TCE #2); Binder #10, 1 pM or lower

| Kd [pM] | Binder |
| --- | --- |
| ≤ 1 | B1 |

Target: T4, TCE #1
Experiment: cell-based or functional assay
Remark: another data set of the same source

| blocking of T-cell mediated tumor cell growth inhibition (simple Incucyte assay) | loss of inhibition of TCE activity (simple Incucyte assay) | inhibition of TCE activity (complex Incucyte assay, functional sink chamber with beads coated with CD3-specific binding domain) | inhibition of TCE activity (complex Incucyte assay, sink chamber with non-coated beads) | Binder | inhibition of TCE activity (simple Incucyte assay) |
| --- | --- | --- | --- | --- | --- |
| 4 fold molar excess of binder over TCE | 1 molar ratio binder:TCE | – | – | B3 | 4 fold molar excess of binder over TCE |
| – | 4 fold molar excess of binder over TCE | – | – | B4 | – |
| – | 1 molar ratio binder:TCE | 12.3 molar ratio binder:TCE | 1.37 molar ratio binder:TCE | B5 | 1 molar ratio binder:TCE and 4 fold molar excess of binder over TCE |

Target: T1, Biotinylated CD3-specific binding …
Experiment: calculated from SPR koff (ln2/koff)
Description: as §1

| Blocking T1/2 [h] | Binder |
| --- | --- |
| > 3.9 | B6 |
| > 3.9 | B3 |
| > 3.9 | B7 |
| > 3.9 | B8 |
| 9.6 | B9 |
| 10.1 | B10 |
| 16 | B4 |
| 7.1 | B2 |
| > 3.9 | B5 |

Target: T2, Biotinylated CD3-specific binding …
Experiment: calculated from SPR koff (ln2/koff)
Description: as §1

| Blocking T1/2 [h] | Binder |
| --- | --- |
| > 3.9 | B6 |
| > 3.9 | B3 |
| > 3.9 | B7 |
| > 3.9 | B8 |
| 4.8 | B9 |
| 6.9 | B10 |
| 10.1 | B4 |
| 3.1 | B2 |
| > 3.9 | B5 |
